Data on nine sequences can be found in the supplement of paper PMC5998384.

Data set [1] deals with HeLa Kyoto. Nature of the data set: solubility change mitosis vs G1/S (difference of NP-40 vs SDS log2 ratios) (log2 ratio difference); higher = more soluble in mitosis.
Data set [2] concerns HeLa Kyoto. Nature of the data set: solubility in G1/S (NP-40 vs SDS abundance) (log2 ratio); higher = more soluble. The note with it: cell cycle stage: G1/S.
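Wherever solubility change mitosis vs G1/S (difference of NP-40 vs SDS log2 ratios) is given: synchronized HeLa Kyoto cells (double thymidine block for G1/S, nocodazole release for mitosis), protein amounts in NP-40 versus SDS lysates quantified by mass spectrometry, three biological replicates.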
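Wherever solubility in G1/S (NP-40 vs SDS abundance) is given: HeLa Kyoto cells arrested at G1/S by double thymidine block, proteins quantified by TMT10plex mass spectrometry in mild NP-40 versus SDS extracts, three biological replicates.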

With “MLRSTGFFRAIDCPYWSGAPGGPCRRPYCHFRHRGARGSGAPGDGGEAPPAAGLGYDPYNPELPKPPAQRENGTLGLGEEPRPDVLELELVNQAIEAVRSEVELEQRRYRELLETTREHRSAEAPALAPRGPNASPTVGPDEDAFPLAFDYSPGSHGLLSPDAGYQPTPLAAPAEPGSKYSLASLDRGQGRGGGGGGALEYVPKAVSQPRRHSRPVPSGKYVVDNSRPPTDLEYDPLSNYSARHLSRASSRDERAAKRPRGSRGSEPYTPAPKKLCDPFGSCDARFSDSEDEAATVPGNEPTTASTPKARADPEIKATGQPPSKEGLEAEGGGLRETKETAVQCDVGDLQPPPAKPASPAQVQSSQDGGCPKEGKPKKKKTGAPPAPSCKDGAQGKDKTKDKGRGRPVEKPRADKKGPQASSPRRKAERPEGTKKKPSSATPVATSGKGRPDRPARRPSPTSGDSRPAAGRGPPRPLQLPDRKSTKAPSGKLVERKARSLDEGASQDAPKLKKRALSHADLFGDESEDEAAGPGVPSVWPSALPSLSSDSDSDSDSSLGFPEAQGPPKRLKASPPPSPAPSSSSSSSSSTSSAGADVDYSALEKEVDFDSDPMEECLRIFNESTSVKTEDRGRLARQPPKEEKSEEKGLSGLTTLFPGQKRRISHLSKQGQEVEPPRRGPAVPPARPPTAQEVCYLRAQQAQRASASLLQAPARLAEKSPSVHISAPGEKRRIAHIPNPRLAAAPTGAKRTLAASGSQSSNGPEPGGQQLKTRTLSGMASKTTTTIIPKRIAHSPSLQSLKKPIIPKEFGGKVPTVIRQRYLNLFIEECLKFCTSNQEAIEKALNEEKVAYDRSPSKNIYLNVAVNTLKKLRGLAPSAVPGLSKTSGRRVVSHEVVLGGRLAAKTSFSLSRPSSPRVEDLKGAALYSRLREYLLTQDQLKENGYPFPHPERPGGAIIFTAEEKRPKDSSCRTCCRCGTEYLVSSSGRCIRDEECYYHWGRLRRNRVAGGWETQYMCCSAAAGSVGCQVAKQHVQDGRKERLEGFVKTFEKELSGDTHPGIYALDCEMSYTTYGLELTRVTVVDTDVHVVYDTFVKPDNEIVDYNTRFSGVTEADLADTSVTLRDVQAVLLSMFSADTILIGHSLESDLLALKVIHSTVVDTSVLFPHRLGLPYKRSLRNLMADYLRQIIQDNVDGHSSSEDAGACMHLVIWKVREDAKTKR [REXO1]”, the “solubility change mitosis (log2)” value in the data set on HeLa Kyoto [1] is -0.0256. In addition, the “solubility in G1/S (log2)” value in the data set with HeLa Kyoto [2] is -0.201.
Turning to “MLRVVSWNINGIRRPLQGVANQEPSNCAAVAVGRILDELDADIVCLQETKVTRDALTEPLAIVEGYNSYFSFSRNRSGYSGVATFCKDNATPVAAEEGLSGLFATQNGDVGCYGNMDEFTQEELRALDSEGRALLTQHKIRTWEGKEKTLTLINVYCPHADPGRPERLVFKMRFYRLLQIRAEALLAAGSHVIILGDLNTAHRPIDHWDAVNLECFEEDPGRKWMDSLLSNLGCQSASHVGPFIDSYRCFQPKQEGAFTCWSAVTGARHLNYGSRLDYVLGDRTLVIDTFQASFLLPEVMGSDHCPVGAVLSVSSVPAKQCPPLCTRFLPEFAGTQLKILRFLVPLEQSPVLEQSTLQHNNQTRVQTCQNKAQVRSTRPQPSQVGSSRGQKNLKSYFQPSPSCPQASPDIELPSLPLMSALMTPKTPEEKAVAKVVKGQAKTSEAKDEKELRTSFWKSVLAGPLRTPLCGGHREPCVMRTVKKPGPNLGRRFYMCARPRGPPTDPSSRCNFFLWSRPS [APEX2]”, the “solubility change mitosis (log2)” value with HeLa Kyoto [1] was -0.0093. Further, the “solubility in G1/S (log2)” value with HeLa Kyoto [2] worked out at 0.0896.
For “MLSPQRALLCNLNHIHLQHVSLGLHLSRRPELQEGPLSTPPPPGDTGGKESRGPCSGTLVDANSNSPAVPCRCCQEHGPGLENRQDPSQEEEGAASPSDPGCSSSLSSCSDLSPDESPVSVYLRDLPGDEDAHPQPSIIPLEQGSPLASAGPGTCSPDSFCCSPDSCSGASSSPDPGLDSNCNALTTCQDVPSPGLEEEDERAEQDLPTSELLEADDGKIDAGKTEPSWKINPIWKIDTEKTKAEWKTTENNNTGWKNNGNVNSSWKSEPEKFDSGWKTNTRITDSGSKTDAGKIDGGWRSDVSEEPVPHRTITSFHELAQKRKRGPGLPLVPQAKKDRSDWLIVFSPDTELPPSGSPGGSSAPPREVTTFKELRSRSRAPAPPVPPRDPPVGWALVPPRPPPPPVPPRRKKNRPGLQPIAEGQSEEGRAVSPAAGEEAPAAKEPGAQAGLEVRSSWSFAGVPGAQRLWMAEAQSGTGQLQEQKKGLLIAVSVSVDKIISHFGAARNLVQKAQLGDSRLSPDVGHLVLTTLCPALHALVADGLKPFRKDLITGQRRSSPWSVVEASVKPGSSTRSLGTLYSQVSRLAPLSSSRSRFHAFILGLLNTKQLELWFSSLQEDAGLLSLLYLPTGFFSLARGGCPSLSTELLLLLQPLSVLTFHLDLLFEHHHHLPLGPPQAPAPPGPPPALQQTMQAMLHFGGRLAQSLRGTSKEAASDPSDSPNLPTPGSWWEQLTQASRVYASGGTEGFPLSRWAPGRHGTAAEEGAQERPLPTDEMAPGRGLWLGRLFGVPGGPAENENGALKSRRPSSWLPPTVSVLALVKRGAPPEMPSPQELEASAPRMVQTHRAVRALCDHTAARPDQLSFRRGEVLRVITTVDEDWLRCGRDGMEGLVPVGYTSLVL [RUSC1]”, the “solubility change mitosis (log2)” value in the data set on HeLa Kyoto [1] is -0.133. Also, in the data set on HeLa Kyoto [2], the “solubility in G1/S (log2)” value stood at 0.182.
For “MMFGGYETIEAYEDDLYRDESSSELSVDSEVEFQLYSQIHYAQDLDDVIREEEHEEKNSGNSESSSSKPNQKKLIVLSDSEVIQLSDGSEVITLSDEDSIYRCKGKNVRVQAQENAHGLSSSLQSNELVDKKCKSDIEKPKSEERSGVIREVMIIEVSSSEEEESTISEGDNVESWMLLGCEVDDKDDDILLNLVGCENSVTEGEDGINWSISDKDIEAQIANNRTPGRWTQRYYSANKNIICRNCDKRGHLSKNCPLPRKVRRCFLCSRRGHLLYSCPAPLCEYCPVPKMLDHSCLFRHSWDKQCDRCHMLGHYTDACTEIWRQYHLTTKPGPPKKPKTPSRPSALAYCYHCAQKGHYGHECPEREVYDPSPVSPFICYYDDKYEIQEREKRLKQKIKVLKKNGVIPEPSKLPYIKAANENPHHDIRKGRASWKSNRWPQENKETQKEMKNKNRNWEKHRKADRHREVDEDFPRGPKTYSSPGSFKTQKPSKPFHRSSHYHTSREDKSPKEGKRGKQKKKERCWEDDDNDNLFLIKQRKKKS [ZCCHC7]”, in that order: 0.926 and -2.02.
Turning to “MMGSKMASASRVVQVVKPHTPLIRFPDRRDNPKPNVSEALRSAGLPSHSSVISQHSKGSKSPDLLMYQGPPDTAEIIKTLPQKYRRKLVSQEEMEFIQRGGPE [MRPS36]”, the “solubility change mitosis (log2)” value in the data set on HeLa Kyoto [1] worked out at 0.401. Besides, the “solubility in G1/S (log2)” value in the data set with HeLa Kyoto [2] came out at 0.138.
For “MMLSRAKPAVGRGVQHTDKRKKKGRKIPKLEELLSKRDFTGAITLLEFKRHVGEEEEDTNLWIGYCAFHLGDYKRALEEYENATKEENCNSEVWVNLACTYFFLGMYKQAEAAGFKASKSRLQNRLLFHLAHKFNDEKKLMSFHQNLQDVTEDQLSLASIHYMRSHYQEAIDIYKRILLDNREYLALNVYVALCYYKLDYYDVSQEVLAVYLQQIPDSTIALNLKACNHFRLYNGRAAEAELKSLMDNASSSFEFAKELIRHNLVVFRGGEGALQVLPPLVDVIPEARLNLVIYYLRQDDVQEAYNLIKDLEPTTPQEYILKGVVNAALGQEMGSRDHMKIAQQFFQLVGGSASECDTIPGRQCMASCFFLLKQFDDVLIYLNSFKSYFYNDDIFNFNYAQAKAATGNTSEGEEAFLLIQSEKMKNDYIYLSWLARCYIMNKKPRLAWELYLKMETSGESFSLLQLIANDCYKMGQFYYSAKAFDVLERLDPNPEYWEGKRGACVGIFQMIIAGREPKETLREVLHLLRSTGNTQVEYMIRIMKKWAKENRVSI [TTC26]”, in that order: -0.0547 and -0.122.
The matching figures for “MMPFGKISQQLCGVKKLPWSCDSRYFWGWLNAVFNKVDYDRIRDVGPDRAASEWLLRCGAMVRYHGQERWQKDYNHLPTGPLDKYKIQAIDATDSCIMSIGFDHMEGLEHVEKIRLCKCHYIEDDCLLRLSQLENLQKTILEMEIISCGNITDKGIIALRHLRNLKYLLLSDLPGVREKENLVQAFKTALPSLELKLQLK [ATP5S]”: -0.136 and -0.164.
For “MMSEHDLADVVQIAVEDLSPDHPVVLENHVVTDEDEPALKRQRLEINCQDPSIKTICLRLDSIEAKLQALEATCKSLEEKLDLVTNKQHSPIQVPMVAGSPLGATQTCNKVRCVVPQTTVILNNDRQNAIVAKMEDPLSNRAPDSLENVISNAVPGRRQNTIVVKVPGQEDSHHEDGESGSEASDSVSSCGQAGSQSIGSNVTLITLNSEEDYPNGTWLGDENNPEMRVRCAIIPSDMLHISTNCRTAEKMALTLLDYLFHREVQAVSNLSGQGKHGKKQLDPLTIYGIRCHLFYKFGITESDWYRIKQSIDSKCRTAWRRKQRGQSLAVKSFSRRTPNSSSYCPSEPMMSTPPPASELPQPQPQPQALHYALANAQQVQIHQIGEDGQVQVGHLHIAQVPQGEQVQITQDSEGNLQIHHVGQDGQLLEATRIPCLLAPSVFKASSGQVLQGAQLIAVASSDPAAAGVDGSPLQGSDIQVQYVQLAPVSDHTAGAQTAEALQPTLQPEMQLEHGAIQIQ [BANP]”, in that order: 0.0132 and 0.417.
Take “MNKNTSTVVSPSLLEKDPAFQMITIAKETGLGLKVLGGINRNEGPLVYIQEIIPGGDCYKDGRLKPGDQLVSVNKESMIGVSFEEAKSIITGAKLRLESAWEIAFIRQKSDNIQPENLSCTSLIEASGEYGPQASTLSLFSSPPEILIPKTSSTPKTNNDILSSCEIKTGYNKTVQIPITSENSTVGLSNTDVASAWTENYGLQEKISLNPSVRFKAEKLEMALNYLGIQPTKEQHQALRQQVQADSKGTVSFGDFVQVARNLFCLQLDEVNVGAHEISNILDSQLLPCDSSEADEMERLKCERDDALKEVNTLKEKLLESDKQRKQLTEELQNVKQEAKAVVEETRALRSRIHLAEAAQRQAHGMEMDYEEVIRLLEAKITELKAQLADYSDQNKESVQDLKKRIMVLDCQLRKSEMARKTFEASTEKLLHFVEAIQEVFSDNSTPLSNLSERRAVLASQTSLTPLGRNGRSIPATLALESKELVKSVRALLDMDCLPYGWEEAYTADGIKYFINHVTQTTSWIHPVMSVLNLSRSEENEEDCSRELPNQKS [STXBP4]”: in the data set with HeLa Kyoto [1], the “solubility change mitosis (log2)” value was -0.138. In the data set with HeLa Kyoto [2], the “solubility in G1/S (log2)” value is 0.308.
